According to paper PMC3596305, “Escherichia coli NemA Is an Efficient Chromate Reductase That Can Be Biologically Immobilized to Provide a Cell Free System for Remediation of Hexavalent Chromium” (PLoS ONE, 2013):

B1: YdgI_Bs (Bacillus subtilis subsp. subtilis str. 168) (protein)
chain: MIKTNDFMEIMKGRRSIRNYDPAVKISKEEMTEILEEATTAPSSVNAQPWRFLVIDSPEGKEKLAPLASFNQTQVTTSSAVIAVFADMNNADYLEEIYSKAVELGYMPQEVKDRQIAALTAHFEKLPAQVNRETILIDGGLVSMQLMLTARAHGYDTNPIGGYDKENIAETFGLDKERYVPVMLLSIGKAADEGYASYRLPIDTIAEWK
B2: NfsB_Vv (Vibrio vulnificus YJ016) (protein)
chain: MTIVQAAQSRYSTKAFDASRKLPEEKVAAVKELIRMSASSVNSQPWHFIVASSEEGKARIAKATQGGFAFNERKILDASHVVVFCAKTAIDEAYLLDLLESEDKDGRFADVEAKNGMHAGRSFFVNMHRFDLKDAHHWMEKQVYLNVGTLLLGASAMEIDAVPIEGFDAKVLDEEFGLREKGFTSVVIVPLGYHSEDDFNAKLPKSRWSAETVFTEI
B3: NfsA_Kp (Klebsiella pneumoniae) (protein)
chain: MTPTIELLRSHRSIRHFTDAPVSDEQRAEIIASAQAASTSSFLQCTSIIRITDPALRERLVPLTGGQQHVAQAAEFWVFCADFNRHLQICPQAQLGLAEQLLIGVVDTALLAQNALTAAESLGLGGVYIGGLRNSIEAVTELLELPQHVLPLFGLCLGWPADNPDIKPRMPAAMLVHENRYQPLDNALLAEYDEQLAHYYLSRGSNARRDTWSDHIRRTIVKESRPFILDYLHKQGWATR
B4: ChrR_Pa (Pseudomonas aeruginosa PAO1) (protein)
chain: MSDDIKVLGISGSLRSGSYNSAALQEAIGLVPPGMSIELADISGIPLYNEDVYALGFPPAVERFREQIRAADALLFATPEYNYSMAGVLKNAIDWASRPPEQPFSGKPAAILGASAGRFGTARAQYHLRQTLVFLDVHPLNKPEVMISSAQNAFDAQGRLLDDKARELIQQQLQALQLWVRRLRG
B5: MdaB_Ec (Escherichia coli K-12) (protein)
chain: SNILIINGAKKFAHSNGQLNDTLTEVADGTLRDLGHDVRIVRADSDYDVKAEVQNFLWADVVIWQMPGWWMGAPWTVKKYIDDVFTEGHGTLYASDGRTRKDPSKKYGSGGLVQGKKYMLSLTWNAPMEAFTEKDQFFHGVGVDGVYLPFHKANQFLGMEPLPTFIANDVIKMPDVPRYTEEYRKHLVEIFG
B6: NfsB_Kp (Klebsiella pneumoniae subsp. pneumoniae MGH 78578) (protein)
chain: MDIVSVALKRYSTKAFDATKKLTAGEAEQLKTLLQYSPSSTNSQPWHFIVASTDEGKARVAKAASGTYVFNERKILDASHVVVFCAKTAMDDAWLQRVVDQEEADGRFATPDAKAANHKGRTFFADMHRKELKDDDQWMAKQVYLNVGNFLLGVAAMGLDAVPIEGVDFAILDEEFDLKAQGYTSLVVVPVGHHSAEDFNATLPKSRLPQSTTITEI
B7: YcnD_Bs (Bacillus subtilis subsp. subtilis str. 168) (protein)
chain: MNEVIKSLTDHRSIRSYTDEPVAQEQLDQIIEAVQSAPSSINGQQVTVITVQDKERKKKISELAGGQPWIDQAPVFLLFCADFNRAKIALEDLHDFKMEITNGLESVLVGAVDAGIALGTATAAAESLGLGTVPIGAVRGNPQELIELLELPKYVFPLSGLVIGHPADRSAKKPRLPQEAVNHQETYLNQDELTSHIQAYDEQMSEYMNKRTNGKETRNWSQSIASYYERLYYPHIREMLEKQGFKVEK
B8: Frp_Vh1 (Vibrio harveyi) (protein)
chain: MNNTIETILAHRSIRKFTAVPITDEQRQTIIQAGLAASSSSMLQVVSIVRVTDSEKRNELAQFAGNQAYVESAAEFLVFCIDYQRHATINPDVQADFTELTLIGAVDSGIMAQNCLLAAESMGLGGVYIGGLRNSAAQVDELLGLPENSAVLFGMCLGHPDQNPEVKPRLPAHVVVHENQYQELNLDDIQSYDQTMQAYYASRTSNQKLSTWSQEVTGKLAGESRPHILPYLNSKGLAKR
B9: NemA_Ec (Escherichia coli K-12) (protein)
chain: MSSEKLYSPLKVGAITAANRIFMAPLTRLRSIEPGDIPTPLMAEYYRQRASAGLIISEATQISAQAKGYAGAPGIHSPEQIAAWKKITAGVHAENGHMAVQLWHTGRISHASLQPGGQAPVAPSALSAGTRTSLRDENGQAIRVETSMPRALELEEIPGIVNDFRQAIANAREAGFDLVELHSAHGYLLHQFLSPSSNHRTDQYGGSVENRARLVLEVVDAGIEEWGADRIGIRVSPIGTFQNTDNGPNEEADALYLIEQLGKRGIAYLHMSEPDWAGGEPYTDAFREKVRARFHGPIIGAGAYTVEKAETLIGKGLIDAVAFGRDWIANPDLVARLQRKAELNPQRAESFYGGGAEGYTDYPTL
notes: free enzyme (not PhaC fusion)
B10: AzoR_Ec (Escherichia coli K-12) (protein)
chain: SKVLVLKSSILAGYSQSNQLSDYFVEQWREKHSADEITVRDLAANPIPVLDGELVGALRPSDAPLTPRQQEALALSDELIAELKAHDVIVIAAPMYNFNISTQLKNYFDLVARAGVTFRYTENGPEGLVTGKKAIVITSRGGIHKDGPTDLVTPYLSTFLGFIGITDVKFVFAEGIAYGPEMAAKAQSDAKAAIDSIVSA

These proteins were tested on [O]=[Cr](=[O])([OH])[OH] (assay: purified protein). Conditions: 1 mM NADH, 50 mM Tris-Cl pH 7.0, 22°C.
Work on B1 yielded a Km of 63 ± 1 µM, a kcat of 0.48 s⁻¹ and a kcat/Km of 7700 M⁻¹ s⁻¹. B2 was tested, and the Km was 2200 µM, the kcat was 0.8 s⁻¹ and the kcat/Km was 360 M⁻¹ s⁻¹. In the case of B3, the Km is reported as 1.7 ± 1.0 µM, the kcat is reported as 0.12 s⁻¹ and the kcat/Km is reported as 69000 M⁻¹ s⁻¹. In the case of B4, the Km is reported as 1300 ± 100 µM, the kcat is reported as 1.5 s⁻¹ and the kcat/Km is reported as 1100 M⁻¹ s⁻¹. Protein B5 has a Km of 170 ± 120 µM, a kcat of 0.2 s⁻¹ and a kcat/Km of 1100 M⁻¹ s⁻¹. B6 showed a Km of 47 ± 4 µM, a kcat of 0.37 s⁻¹ and a kcat/Km of 7800 M⁻¹ s⁻¹. B7 showed a Km of 73 ± 2 µM, a kcat of 0.37 s⁻¹ and a kcat/Km of 5000 M⁻¹ s⁻¹. B8 gave a Km of 3.8 ± 0.5 µM, a kcat of 0.32 s⁻¹ and a kcat/Km of 84000 M⁻¹ s⁻¹.

Same assay, conditions: 1 mM NADH, 50 mM Tris-Cl pH 7.0, 22°C, free enzyme
Work on B9 yielded a Km of 16 ± 9 µM, a kcat of 1 s⁻¹ and a kcat/Km of 110000 M⁻¹ s⁻¹.

Each protein was assayed on [O]=[Cr](=[O])([OH])[OH] (assay: cells, lysate or membranes named). Conditions: 1 mM NADH, 50 mM Tris-Cl pH 7.0, 22°C, no lysate or lawsone added.
With B10 the Km was 380 µM, the kcat was 0.03 s⁻¹ and the kcat/Km was 87 M⁻¹ s⁻¹.

What follows are proteins tested on NC(=O)C1=CN([C@@H]2O[C@H](COP(=O)(O)OP(=O)(O)OC[C@H]3O[C@@H](n4cnc5c(N)ncnc54)[C@H](O)[C@@H]3O)[C@@H](O)[C@H]2O)C=CC1 (assay: diphenylcarbazide Cr(VI) assay, Lineweaver-Burk). Conditions: 150 µM Cr(VI), 22°C, pH 7.0, free enzyme, varied: cofactor.
Assay type: biochemical, Escherichia coli
Work on B9 yielded a Km of 450 ± 30 µM.
